The supplement of paper PMC9876800

Tested on: peptide library, one residue held at a place counted from the S/T acceptor
Test: relative phosphorylation of the sub-library (ratio to the mean residue at this position); higher = residue favoured
Outline: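 Each biotinylated degenerate peptide sub-library fixed one residue at one position around a central Ser/Thr and was incubated with a purified recombinant kinase, a human or orthologue construct, in 384-well plates. The 90 min reactions, under kinase-specific conditions, contained 50 μM peptide and 50 μM ATP spiked with γ-32P-ATP. Phosphorylation was read by phosphorimaging spots on streptavidin membranes and quantifying them by densitometry. Relative sub-library phosphorylation expresses each value as a ratio to the mean residue at that position.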

Sequence of CDK4, construct: Full length, human (P11802 whole entry, looked up): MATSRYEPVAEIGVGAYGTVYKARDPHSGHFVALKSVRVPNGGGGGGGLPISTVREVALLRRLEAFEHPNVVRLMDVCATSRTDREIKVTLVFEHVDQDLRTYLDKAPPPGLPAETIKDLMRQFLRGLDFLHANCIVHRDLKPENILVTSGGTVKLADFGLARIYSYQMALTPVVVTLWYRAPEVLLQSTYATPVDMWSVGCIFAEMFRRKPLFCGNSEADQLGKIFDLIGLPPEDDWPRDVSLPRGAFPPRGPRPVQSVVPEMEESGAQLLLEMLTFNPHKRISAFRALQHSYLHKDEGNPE
Sequence of NEK5, construct: aa1-508, human (Q6P3R8 1-508, looked up): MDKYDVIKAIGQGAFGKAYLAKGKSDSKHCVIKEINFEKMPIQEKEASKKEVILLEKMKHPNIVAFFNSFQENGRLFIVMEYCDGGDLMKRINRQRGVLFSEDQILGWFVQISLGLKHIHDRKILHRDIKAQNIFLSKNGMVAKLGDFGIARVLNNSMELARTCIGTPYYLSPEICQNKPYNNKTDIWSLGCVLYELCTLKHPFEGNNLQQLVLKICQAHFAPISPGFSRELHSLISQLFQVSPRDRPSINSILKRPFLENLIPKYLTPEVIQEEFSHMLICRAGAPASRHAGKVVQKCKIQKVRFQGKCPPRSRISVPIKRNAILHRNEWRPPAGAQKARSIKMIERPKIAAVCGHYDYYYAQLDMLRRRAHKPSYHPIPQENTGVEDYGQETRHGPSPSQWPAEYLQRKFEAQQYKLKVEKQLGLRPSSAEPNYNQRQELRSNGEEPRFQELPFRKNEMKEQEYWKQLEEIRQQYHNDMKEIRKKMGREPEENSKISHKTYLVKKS

PRKCI, construct: Full length, human (from UniProt P41743)
relative phosphorylation
Details	at +1	at +2	at +3	at +4	at -1	at -2	at -3	at -4	at -5
A fixed	0.617	0.488	0.873	0.871	1.13	0.692	0.835	1.12	1
D fixed	0.136	0.156	0.275	0.43	0.343	0.184	0.208	0.464	0.499
E fixed	0.134	0.152	0.277	0.378	0.317	0.197	0.23	0.464	0.425
F fixed	1.85	0.543	0.961	0.688	0.607	0.995	1.06	0.998	1.39
G fixed	0.617	0.557	0.946	1.07	1.4	0.883	0.846	1.04	1.02
H fixed	0.755	1.42	1.24	1.2	0.896	1.17	1.01	1.1	1.05
I fixed	1.34	0.654	0.855	0.926	0.35	0.447	0.543	0.782	0.792
K fixed	1.93	2.63	2.28	2.33	2.57	1.52	1.86	1.71	1.71
L fixed	1.18	0.538	0.882	0.716	0.617	0.601	0.745	0.761	1.13
M fixed	1.74	0.873	0.722	0.745	1.02	0.878	0.915	0.883	0.814
N fixed	0.58	0.59	0.598	0.765	0.921	0.768	0.579	0.899	0.771
P fixed	0.445	0.401	0.699	1.11	0.731	0.423	0.603	0.75	0.79
Q fixed	0.79	0.655	0.659	0.863	1.12	0.813	0.698	0.859	0.788
R fixed	2.23	5.01	2.67	2.07	2.73	4.2	4.14	1.78	1.76
V fixed	1.04	0.643	0.792	0.774	0.607	0.478	0.655	0.935	0.89
W fixed	0.696	0.658	1.14	1.14	0.637	1.02	1.01	1.53	1.22
Y fixed	0.92	1.04	1.15	0.923	0.993	1.73	1.06	0.926	0.948
pThr fixed	0.598	0.355	0.444	0.621	0.312	0.388	0.638	0.775	0.716
pTyr fixed	0.324	0.334	0.539	0.442	0.309	0.349	0.391	0.388	0.599

SRPK3, construct: Full length, human (from UniProt Q9UPE1)
relative phosphorylation
Details	at +1	at +2	at +3	at +4	at -1	at -2	at -3	at -4	at -5
A fixed	0.905	1.14	0.591	0.865	1.08	1.46	0.594	0.904	0.946
D fixed	0.388	1.38	0.427	0.767	0.598	3.18	0.543	0.699	0.69
E fixed	0.501	1.15	0.377	0.67	0.731	1.53	0.451	0.818	0.718
F fixed	0.56	0.736	0.505	0.848	0.727	0.782	0.389	0.825	1.1
G fixed	0.767	0.962	0.719	1.03	1.05	0.997	0.429	0.929	1.05
H fixed	0.649	1.54	0.577	0.999	1.3	0.804	0.444	0.944	1.09
I fixed	0.877	0.777	0.413	0.739	0.696	0.471	0.351	0.865	0.92
K fixed	0.963	1.08	1.06	1.33	1.34	0.908	0.724	1.36	1.33
L fixed	1.09	0.601	0.41	0.846	0.924	0.551	0.346	0.791	0.785
M fixed	1.01	0.796	0.467	0.899	1.02	0.666	0.403	0.859	0.906
N fixed	0.674	1.31	0.592	1.04	0.833	0.938	0.417	0.83	0.861
P fixed	3.97	0.922	1.39	1.02	1.58	0.762	0.387	0.99	0.74
Q fixed	0.926	0.905	0.635	1.07	1.07	0.729	0.568	0.952	0.777
R fixed	1.48	1.35	7.34	2.07	1.76	1.31	9.8	2.63	2.11
V fixed	1.13	0.909	0.456	0.745	0.898	0.547	0.34	0.852	0.897
W fixed	0.574	0.701	0.541	1.18	0.579	0.638	0.39	0.881	0.977
Y fixed	0.537	0.734	0.496	0.876	0.818	0.723	0.429	0.867	1.1
pThr fixed	0.601	1.02	0.572	0.874	0.69	1.01	0.644	1.13	0.863
pTyr fixed	0.746	0.876	0.702	0.924	1.38	1.79	1.29	2.21	1.15

CDK4, construct: Full length, human (from UniProt P11802)
relative phosphorylation
Details	at +1	at +2	at +3	at +4	at -1	at -2	at -3	at -4	at -5
A fixed	0.244	0.682	0.688	0.766	0.896	0.85	1.04	1	1.02
D fixed	0.173	0.416	0.335	0.58	0.421	0.228	0.387	0.667	0.799
E fixed	0.133	0.337	0.246	0.526	0.504	0.298	0.59	0.844	0.796
F fixed	0.237	0.736	0.778	0.851	0.96	1.06	0.741	0.852	0.797
G fixed	0.746	0.88	0.82	1.11	1.03	0.596	1.4	1.18	1.28
H fixed	0.266	1.32	1.05	1.38	1.02	1.04	1.13	1.09	1.16
I fixed	0.278	1.16	0.428	0.855	0.531	1.01	0.915	0.838	0.917
K fixed	0.29	1.55	1.86	1.2	1.29	0.798	1.21	1.23	1.4
L fixed	0.364	0.967	0.412	0.587	1.28	1.41	0.874	0.808	0.752
M fixed	0.267	1.03	0.566	0.909	1.46	1.28	0.796	0.827	0.813
N fixed	0.258	1.27	0.739	0.976	0.731	0.948	0.856	1.16	1.08
P fixed	12.4	0.481	0.92	0.848	0.94	2.52	1.14	1.08	1.14
Q fixed	0.275	0.789	0.652	0.801	1.27	0.76	0.704	0.832	0.822
R fixed	0.324	2.59	4.48	2.2	1.9	1.39	2.5	1.52	1.6
V fixed	0.302	1.01	0.417	0.636	0.624	0.891	0.889	0.658	0.68
W fixed	0.239	0.624	1.54	1.42	0.996	0.88	0.87	1.28	0.782
Y fixed	0.222	1.16	1.07	1.36	1.13	1.05	0.957	1.13	1.15
pThr fixed	0.323	0.406	0.361	0.422	0.237	0.382	0.592	0.644	0.77
pTyr fixed	0.482	0.391	0.503	0.432	0.357	0.356	0.592	0.544	0.934

NEK5, construct: aa1-508, human (from UniProt Q6P3R8)
relative phosphorylation
Details	at +1	at +2	at +3	at +4	at -1	at -2	at -3	at -4	at -5
A fixed	1.01	0.985	0.773	0.99	1.04	1.3	1.01	1.05	1.21
D fixed	0.278	0.417	0.524	0.792	0.791	1.17	0.548	1.14	1.18
E fixed	0.295	0.352	0.418	0.76	0.848	1.18	0.597	1.08	0.891
F fixed	1.25	0.913	1.34	0.978	0.649	0.857	1.71	0.997	1
G fixed	1.39	0.768	1.02	1.29	0.889	1.65	1.5	1.32	1.45
H fixed	0.864	1.15	1.07	1.2	1.1	1.17	1.07	1.05	1.02
I fixed	0.943	0.752	0.978	0.639	0.403	0.475	0.308	0.616	0.532
K fixed	1.04	1.74	0.986	1.26	1.74	0.692	0.927	1.11	1.06
L fixed	1.06	0.885	1.33	0.946	1.08	1.08	1.54	0.803	0.882
M fixed	1.82	1.1	1.15	0.968	1.16	1.18	1.5	1.06	0.969
N fixed	1.01	1.14	1.12	1.13	1.35	1.48	0.849	1.12	1.15
P fixed	0.238	0.735	0.987	1.31	0.504	0.692	1.35	1.19	1.39
Q fixed	1.61	1.01	0.868	1.05	1.31	0.958	0.729	0.869	0.844
R fixed	1.36	2.28	1.26	1	1.78	0.826	0.798	0.994	1.09
V fixed	0.902	0.846	0.812	0.701	0.624	0.482	0.318	0.531	0.655
W fixed	1	0.873	1.29	1.07	0.643	0.945	1.22	1.25	0.896
Y fixed	0.933	1.05	1.07	0.914	1.08	0.846	1.03	0.826	0.771
pThr fixed	0.498	0.581	0.612	0.602	0.407	0.745	0.844	1	1.2
pTyr fixed	0.429	0.401	0.715	0.562	0.879	1.12	1.01	1.01	1.15
